Target: mTFP1
Experiment: SDS-PAGE with in-gel fluorescence; whole-cell extract of C. reinhardtii transformants in SDS sample buffer without β-mercaptoethanol, 40°C for 5 min; 15% resolving gel; gel washed in water to refold the fluorescent proteins; imaged with bandpass filters

stoichiometry N: 2
Substance: mTFP1
